# Measurements reported in patent publication US20240390508A1 (Takeda / Millennium, published 2024).
# B1: peptide-HDO conjugate of Example 55 (first nucleic acid strand A4, second nucleic acid strand C55) (peptide)
# peptide: AVFVWNYYIIRRYYC
# modifications: not fully specified; MeF at 3, MeY at 14 (N-methyl); thioether ring from N-terminal chloroacetyl-Ala to Cys 15; C-terminal Gly-KN3-NH2, azide joined to BCN on the oligonucleotide
# notes: also called A4/C55
# B2: peptide-HDO conjugate of Example 39 (first nucleic acid strand A2, second nucleic acid strand C31) (peptide)
# peptide: AVFVWNYYIIRRYYC
# modifications: MeF at 3, MeY at 14 (N-methyl); thioether ring from N-terminal chloroacetyl-Ala to Cys 15; C-terminal Gly-KN3-NH2, azide joined to BCN on the oligonucleotide
# notes: also called A2/C31
# B3: Y11-PMO conjugate of Example 58 (peptide)
# peptide: AVFVWNYYIIRRYYC
# chain: GGGEEESSC
# modifications: not fully specified; N-terminal BCN; C-terminal amide; tBuS removed from Cys, Cys thiol joined to 3-maleimide propionyl A1; MeF at 3, MeY at 14 (N-methyl); thioether ring from N-terminal chloroacetyl-Ala to Cys 15; C-terminal Gly-KN3-NH2, azide joined to BCN of the linker peptide
# B4: peptide-HDO conjugate of Example 23 (first nucleic acid strand A2, second nucleic acid strand C18) (peptide)
# peptide: AVFVWNYYIIRRYYC
# modifications: MeF at 3, MeY at 14 (N-methyl); thioether ring from N-terminal chloroacetyl-Ala to Cys 15; C-terminal Gly-KN3-NH2, azide joined to BCN on the oligonucleotide
# notes: also called A2/C18
# B5: peptide-HDO conjugate of Example 22 (first nucleic acid strand A2, second nucleic acid strand C17) (peptide)
# peptide: AVFVWNYYIIRRYYC
# modifications: MeF at 3, MeY at 14 (N-methyl); thioether ring from N-terminal chloroacetyl-Ala to Cys 15; C-terminal Gly-KN3-NH2, azide joined to BCN on the oligonucleotide
# notes: also called A2/C17
# B6: peptide-HDO conjugate of Example 38 (first nucleic acid strand A2, second nucleic acid strand C30) (peptide)
# peptide: AVFVWNYYIIRRYYC
# modifications: MeF at 3, MeY at 14 (N-methyl); thioether ring from N-terminal chloroacetyl-Ala to Cys 15; C-terminal Gly-KN3-NH2, azide joined to BCN on the oligonucleotide
# notes: also called A2/C30
# B7: peptide-HDO conjugate of Example 48 (first nucleic acid strand A2, second nucleic acid strand C47) (peptide)
# peptide: AVFVWNYYIIRRYYC
# modifications: MeF at 3, MeY at 14 (N-methyl); thioether ring from N-terminal chloroacetyl-Ala to Cys 15; C-terminal Gly-KN3-NH2, azide joined to BCN on the oligonucleotide
# notes: also called A2/C47
# B8: peptide-HDO conjugate of Example 46 (first nucleic acid strand A2, second nucleic acid strand C44) (peptide)
# peptide: AVFVWNYYIIRRYYC
# modifications: MeF at 3, MeY at 14 (N-methyl); thioether ring from N-terminal chloroacetyl-Ala to Cys 15; C-terminal Gly-KN3-NH2, azide joined to BCN on the oligonucleotide
# notes: also called A2/C44
# B9: peptide-HDO conjugate of Example 13 (first nucleic acid strand A2, second nucleic acid strand C13) (peptide)
# peptide: AVFVWNYYIIRRYYC
# modifications: MeF at 3, MeY at 14 (N-methyl); thioether ring from N-terminal chloroacetyl-Ala to Cys 15; C-terminal Gly-KN3-NH2, azide joined to BCN on the oligonucleotide
# notes: also called A2/C13
# B10: peptide-HDO conjugate of Example 7 (first nucleic acid strand A1, second nucleic acid strand C7) (peptide)
# peptide: AVFVWNYYIIRRYYC
# modifications: MeF at 3, MeY at 14 (N-methyl); thioether ring from N-terminal chloroacetyl-Ala to Cys 15; C-terminal Gly-KN3-NH2, azide joined to BCN on the oligonucleotide
# notes: also called A1/C7
# B11: peptide-HDO conjugate of Example 41 (first nucleic acid strand A2, second nucleic acid strand C33) (peptide)
# peptide: AVFVWNYYIIRRYYC
# modifications: MeF at 3, MeY at 14 (N-methyl); thioether ring from N-terminal chloroacetyl-Ala to Cys 15; C-terminal Gly-KN3-NH2, azide joined to BCN on the oligonucleotide
# notes: also called A2/C33
# B12: peptide-HDO conjugate of Example 28 (first nucleic acid strand A1, second nucleic acid strand C28) (peptide)
# peptide: AVFVWNYYIIRRYYC
# modifications: MeF at 3, MeY at 14 (N-methyl); thioether ring from N-terminal chloroacetyl-Ala to Cys 15; C-terminal Gly-KN3-NH2, azide joined to BCN on the oligonucleotide
# notes: also called A1/C28
# B13: peptide-HDO conjugate of Example 29 (first nucleic acid strand A1, second nucleic acid strand C29) (peptide)
# peptide: AVFVWNYYIIRRYYC
# modifications: MeF at 3, MeY at 14 (N-methyl); thioether ring from N-terminal chloroacetyl-Ala to Cys 15; C-terminal Gly-KN3-NH2, azide joined to BCN on the oligonucleotide
# notes: also called A1/C29
# B14: peptide-HDO conjugate of Example 35 (first nucleic acid strand A2, second nucleic acid strand C27) (peptide)
# peptide: AVFVWNYYIIRRYYC
# modifications: MeF at 3, MeY at 14 (N-methyl); thioether ring from N-terminal chloroacetyl-Ala to Cys 15; C-terminal Gly-KN3-NH2, azide joined to BCN on the oligonucleotide
# notes: also called A2/C27
# B15: peptide-HDO conjugate of Example 50 (first nucleic acid strand A1, second nucleic acid strand C50) (peptide)
# peptide: AVFVWNYYIIRRYYC
# modifications: MeF at 3, MeY at 14 (N-methyl); thioether ring from N-terminal chloroacetyl-Ala to Cys 15; C-terminal Gly-PEG12c-KN3-NH2, azide joined to BCN on the oligonucleotide
# notes: also called A1/C50
# B16: peptide-HDO conjugate of Example 31 (first nucleic acid strand A1, second nucleic acid strand C31) (peptide)
# peptide: AVFVWNYYIIRRYYC
# modifications: MeF at 3, MeY at 14 (N-methyl); thioether ring from N-terminal chloroacetyl-Ala to Cys 15; C-terminal Gly-KN3-NH2, azide joined to BCN on the oligonucleotide
# notes: also called A1/C31
# B17: peptide-HDO conjugate of Example 27 (first nucleic acid strand A1, second nucleic acid strand C27) (peptide)
# peptide: AVFVWNYYIIRRYYC
# modifications: MeF at 3, MeY at 14 (N-methyl); thioether ring from N-terminal chloroacetyl-Ala to Cys 15; C-terminal Gly-KN3-NH2, azide joined to BCN on the oligonucleotide
# notes: also called A1/C27
# B18: Y10-PMO conjugate of Example 57 (peptide)
# peptide: AVFVWNYYIIRRYYC
# chain: RRRA
# modifications: not fully specified; N-terminal BCN-AEEA; C-terminal beta-Ala coupled to the 3' end of PMO A1; MeF at 3, MeY at 14 (N-methyl); thioether ring from N-terminal chloroacetyl-Ala to Cys 15; C-terminal Gly-KN3-NH2, azide joined to BCN of the linker peptide
# B19: Y13-PMO conjugate of Example 60 (peptide)
# peptide: AVFVWNYYIIRRYYC
# chain: RRRG
# modifications: not fully specified; N-terminal 4-pentynoyl-AEEA; C-terminal Gly coupled to PMO A4; MeF at 3, MeY at 14 (N-methyl); thioether ring from N-terminal chloroacetyl-Ala to Cys 15; C-terminal Gly-KN3-NH2, azide joined by copper-catalysed click to the 4-pentynoyl group of the linker …
# B20: peptide-HDO conjugate of Example 37 (first nucleic acid strand A2, second nucleic acid strand C29) (peptide)
# peptide: AVFVWNYYIIRRYYC
# modifications: MeF at 3, MeY at 14 (N-methyl); thioether ring from N-terminal chloroacetyl-Ala to Cys 15; C-terminal Gly-KN3-NH2, azide joined to BCN on the oligonucleotide
# notes: also called A2/C29
# B21: peptide-HDO conjugate of Example 24 (first nucleic acid strand A2, second nucleic acid strand C19) (peptide)
# peptide: AVFVWNYYIIRRYYC
# modifications: MeF at 3, MeY at 14 (N-methyl); thioether ring from N-terminal chloroacetyl-Ala to Cys 15; C-terminal Gly-KN3-NH2, azide joined to BCN on the oligonucleotide
# notes: also called A2/C19
# B22: Y14-PMO conjugate of Example 61 (peptide)
# peptide: AVFVWNYYIIRRYYC
# chain: KKKG
# modifications: not fully specified; N-terminal 4-pentynoyl-AEEA; ivDde groups on the three Lys removed with hydrazine; C-terminal Gly coupled to PMO A4; MeF at 3, MeY at 14 (N-methyl); thioether ring from N-terminal chloroacetyl-Ala to Cys 15; C-terminal Gly-KN3-NH2, azide joined by copper-catalysed click to the 4-pentynoyl group of the linker …
# B23: peptide-HDO conjugate of Example 11 (first nucleic acid strand A2, second nucleic acid strand C11) (peptide)
# peptide: AVFVWNYYIIRRYYC
# modifications: MeF at 3, MeY at 14 (N-methyl); thioether ring from N-terminal chloroacetyl-Ala to Cys 15; C-terminal Gly-KN3-NH2, azide joined to BCN on the oligonucleotide
# notes: also called A2/C11
# B24: peptide-HDO conjugate of Example 42 (first nucleic acid strand A1, second nucleic acid strand C42) (peptide)
# peptide: AVFVWNYYIIRRYYC
# modifications: MeF at 3, MeY at 14 (N-methyl); thioether ring from N-terminal chloroacetyl-Ala to Cys 15; C-terminal Gly-KN3-NH2, azide joined to BCN on the oligonucleotide
# notes: also called A1/C42
# B25: peptide-HDO conjugate of Example 4 (first nucleic acid strand A1, second nucleic acid strand C4) (peptide)
# peptide: AVFVWNYYIIRRYYC
# modifications: MeF at 3, MeY at 14 (N-methyl); thioether ring from N-terminal chloroacetyl-Ala to Cys 15; C-terminal Gly-KN3-NH2, azide joined to BCN on the oligonucleotide
# notes: also called A1/C4
# B26: peptide-HDO conjugate of Example 14 (first nucleic acid strand A2, second nucleic acid strand C4) (peptide)
# peptide: AVFVWNYYIIRRYYC
# modifications: MeF at 3, MeY at 14 (N-methyl); thioether ring from N-terminal chloroacetyl-Ala to Cys 15; C-terminal Gly-KN3-NH2, azide joined to BCN on the oligonucleotide
# notes: also called A2/C4
# B27: peptide-HDO conjugate of Example 6 (first nucleic acid strand A1, second nucleic acid strand C6) (peptide)
# peptide: AVFVWNYYIIRRYYC
# modifications: MeF at 3, MeY at 14 (N-methyl); thioether ring from N-terminal chloroacetyl-Ala to Cys 15; C-terminal Gly-KN3-NH2, azide joined to BCN on the oligonucleotide
# notes: also called A1/C6
# Biological target: T1, human transferrin receptor (hTfR) (human, UniProt P02786 89-760, limits assumed)
# T1 construct: 0.5 uM hTfR solution immobilised on a Ni-NTA chip with EDC/NHS; source and construct are not described; also called human TfR
# T1 sequence (P02786 89-760 limits assumed): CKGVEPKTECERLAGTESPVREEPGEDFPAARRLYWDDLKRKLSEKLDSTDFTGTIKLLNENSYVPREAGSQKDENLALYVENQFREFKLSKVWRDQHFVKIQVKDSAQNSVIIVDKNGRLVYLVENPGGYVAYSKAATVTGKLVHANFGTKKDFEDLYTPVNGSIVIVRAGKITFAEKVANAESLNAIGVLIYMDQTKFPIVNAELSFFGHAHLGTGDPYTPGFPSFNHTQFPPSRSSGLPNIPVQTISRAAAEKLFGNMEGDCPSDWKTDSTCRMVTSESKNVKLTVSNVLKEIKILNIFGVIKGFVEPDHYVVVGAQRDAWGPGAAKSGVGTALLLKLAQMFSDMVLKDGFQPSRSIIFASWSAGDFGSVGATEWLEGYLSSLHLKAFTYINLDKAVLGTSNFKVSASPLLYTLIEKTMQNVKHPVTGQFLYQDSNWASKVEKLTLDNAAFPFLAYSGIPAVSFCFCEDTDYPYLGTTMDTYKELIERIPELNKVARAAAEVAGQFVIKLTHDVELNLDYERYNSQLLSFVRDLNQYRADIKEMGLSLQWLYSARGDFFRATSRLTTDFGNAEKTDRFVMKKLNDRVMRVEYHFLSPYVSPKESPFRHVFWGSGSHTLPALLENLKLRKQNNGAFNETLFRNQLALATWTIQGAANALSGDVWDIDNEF
# Experiment: SPR, hTfR immobilised on NTA chip, single cycle kinetics; A = KD less than 100 nM
# Protocol: The various synthesized peptide-nucleic acid conjugates were tested for intermolecular interaction by surface plasmon resonance (SPR) of the peptide-nucleic acid conjugate with transferrin receptor (hTfR) using the method shown below. The specific test method is shown below.
# NTA sensor chip (Global Life Science Technologies Japan Co., Ltd.) was inserted into Biacore T200 (Global Life Science Technologies Japan Co., Ltd.), prime operation was performed three times with running buffer: 10 mM HEPES pH 8.0 (Nacalai Tesque Co., Ltd.), 150 mM NaCl (Nacalai Tesque Co., Ltd.), 0.05% Tween 20 (Nacalai Tesque Co., Ltd.), 0.1% BSA (SIGMA-ALDRICH), and 1.0% DMSO (FUJIFILM Wako Pure Chemical Corporation), and equilibrated at a flow rate of 30 μL/min. 350 mM EDTA solution was reacted for 60 seconds at a flow rate of 10 μL/min, 0.5 mM NiCl₂ solution (Kishida Chemical) was reacted for 60 seconds at a flow rate of 10 μL/min, and the NTA sensor chip was washed with 3 mM EDTA solution (Nacalai Tesque Co., Ltd.) for 60 seconds at a flow rate of 10 μL/min. After mixing 50 μL each of 60 mM EDC solution (Global Life Science Technologies Japan Co., Ltd.) and 650 mM NHS solution (Global Life Science Technologies Japan Co., Ltd.), the mixture was reacted for 420 seconds at a flow rate of 10 μL/min. 150 μL of a 0.5 μM hTfR solution was prepared by diluting with a running buffer and reacted for 300 seconds at a flow rate of 10 μL/min to immobilize hTfR on the NTA sensor chip. After immobilization, capping was performed by reacting with a 1.0 M ethanolamine aqueous solution (Global Life Science Technologies Japan Co., Ltd.) at a flow rate of 10 μL/min for 420 seconds. A peptide-nucleic acid conjugate solution adjusted to 10 mM in DMSO solution was diluted with running buffer to a final concentration of […] peptide-nucleic acid conjugate solution, and 100 nM, 50 nM, 25 nM, 10 nM, 5 nM peptide-nucleic acid conjugate solutions were prepared. Using the aforementioned samples, the kinetics of the peptide against hTfR was obtained by SPR measurement.
# The kinetics evaluation model was Single Cycle Kinetics, and curve fitting was performed using Biacore T200 Evaluation Software Version 3.0 (Global Life Science Technologies Japan Co., Ltd.).
row,Kd,Binder
1,< 100 nM,B1
2,< 100 nM,B2
3,< 100 nM,B3
4,< 100 nM,B4
5,< 100 nM,B5
6,< 100 nM,B6
7,< 100 nM,B7
8,< 100 nM,B8
9,< 100 nM,B9
10,< 100 nM,B10
11,< 100 nM,B11
12,< 100 nM,B12
13,< 100 nM,B13
14,< 100 nM,B14
15,< 100 nM,B15
16,< 100 nM,B16
17,< 100 nM,B17
18,< 100 nM,B18
19,< 100 nM,B19
20,< 100 nM,B20
21,< 100 nM,B21
22,< 100 nM,B22
23,< 100 nM,B23
24,< 100 nM,B24
25,< 100 nM,B25
26,< 100 nM,B26
27,< 100 nM,B27
